Experimental data: paper PMC7067600 (Nature structural & molecular biology, 2019)
One block for each binder: values may come before it.

B2: StrepII-tagged Gallus gallus FANCD2 (expressed alone) (natural protein, UniProt Q68Y81 1-1439, looked up)
chain: MVSKRKLSKIDAAEESSKTDLQSRCPETKRSRISDKRAPSQGGLENEGVFEELLRTSGIILKVGEGQNEIAVDQTAFQKKLRVALEKHPSYPGVVNEFISGLESHIKDRSQFKNCLLPCTPARTEGSRTLVHSYCESLIKLLLGIKILQPAVVTLLLEKIPEFFFDVVGTFGTNFPRLIVNQFKWLDGLLDSQDLVKKLMQMLSVSPVPIQHDIITSLPEILEDSQQNEVARELSCLLKQGRRLTVPILDALSRLDLDAELLAEVRQSAMTIVPSVKLEDLPVVIKFILHNVKAADAVEVISDLRKSLDLSSCVLPLQLLGSQRKLKSQAQASSSMSQVTTSQNCVKLLFDVIKQAVRFQKDVSEAWIKAIENSTSVSDHKVLDLIVLLLIHSTNSKNRKQTEKVLRSKIRLGCMPEQLMQNAFQNHSMVIKDFFPSILSLAQTFLHSAHPAVVSFGSCMYKQAFAVFDSYCQQEVVCALVTHVCSGNETELDISLDVLTDLVILHPSLLLRYATFVKTILDSMQKLNPCQIRKLFYILSTLAFSQRQEGSYIQDDMHMVIRKWLSSSVPNHKQMGIIGAVTMMGSVALKRNEADGGLLERPELSIECDGQLSTLLDLVGFCCEQTPEVLALYYDELANLIEKQKGNLDLQLLDKFGKSLVEDFPNDFVVDLSPTVDGSFLFPVKSLYNLDEDETQGAIAINLLPLVSQSEPGRVADEMSNSRKRVVSPICLSPCFRLLRLYTGEQNNGSLEEIDALLGCPLYLTDLEVEGKLDSLSKQEREFLCSLLFYALNWFREVVNAFCQQQDAEMKGKVLTRLQNITELQNVLGKCLAATPGYVPPPATFDSEAPEGVPSINAGGPVRKKNGKKRKSDSSKACSAERTQADESSDGNQPDTELSELEKSATEKETGNPLAQLQSYRPYFRELDLEVFSVLHCGLLTKSILDTEMHTEASEVVQLGPAELCFLLDDMCWKLEHVLTPGSTRRVPFLKERGNKDVGFSHLCQRSPKEVAVCVVKLLKPLCNHMENMHNYFQTVIPNQGVVDESGLNIQEYQLMSSCYHQLLLAFRLLFAWSGFSQHENSNLLRSALQVLADRLKPGETEFLPLEELISESFQYLLNFQASIPSFQCAFILTQVLMAISEKPMTGWKREKMASLAKQFLCQSWMKPGGDREKGSHFNSALHTLLCVYLEHTDNILKAIEEISSVGVPELINSAKDGCSSTYPTLSRQTFPVFFRVMMAQLESSVKSIPAGKPSDSGEVQLEKLLKWNIAVRNFHILINLVKVFDSRPVLSICLKYGRLFVEAFLKLAMPLLDHSFKKHRDDVQSLLKTLQLSTRQLHHMCGHSKIHQDLGLTNHVPLLKKSLEQFVYRVKAMLAFNHCQEAFWVGVLKNRDLQGEEILSQASAAPEEDSAEGSEEDTADSAAEEPDGTDSDSGGAGR

Assays:
FANCI (isolated) = target: T1, FANCI (isolated) (Gallus gallus, UniProt B0I564 1-1338); assay: EMSA
T1 sequence: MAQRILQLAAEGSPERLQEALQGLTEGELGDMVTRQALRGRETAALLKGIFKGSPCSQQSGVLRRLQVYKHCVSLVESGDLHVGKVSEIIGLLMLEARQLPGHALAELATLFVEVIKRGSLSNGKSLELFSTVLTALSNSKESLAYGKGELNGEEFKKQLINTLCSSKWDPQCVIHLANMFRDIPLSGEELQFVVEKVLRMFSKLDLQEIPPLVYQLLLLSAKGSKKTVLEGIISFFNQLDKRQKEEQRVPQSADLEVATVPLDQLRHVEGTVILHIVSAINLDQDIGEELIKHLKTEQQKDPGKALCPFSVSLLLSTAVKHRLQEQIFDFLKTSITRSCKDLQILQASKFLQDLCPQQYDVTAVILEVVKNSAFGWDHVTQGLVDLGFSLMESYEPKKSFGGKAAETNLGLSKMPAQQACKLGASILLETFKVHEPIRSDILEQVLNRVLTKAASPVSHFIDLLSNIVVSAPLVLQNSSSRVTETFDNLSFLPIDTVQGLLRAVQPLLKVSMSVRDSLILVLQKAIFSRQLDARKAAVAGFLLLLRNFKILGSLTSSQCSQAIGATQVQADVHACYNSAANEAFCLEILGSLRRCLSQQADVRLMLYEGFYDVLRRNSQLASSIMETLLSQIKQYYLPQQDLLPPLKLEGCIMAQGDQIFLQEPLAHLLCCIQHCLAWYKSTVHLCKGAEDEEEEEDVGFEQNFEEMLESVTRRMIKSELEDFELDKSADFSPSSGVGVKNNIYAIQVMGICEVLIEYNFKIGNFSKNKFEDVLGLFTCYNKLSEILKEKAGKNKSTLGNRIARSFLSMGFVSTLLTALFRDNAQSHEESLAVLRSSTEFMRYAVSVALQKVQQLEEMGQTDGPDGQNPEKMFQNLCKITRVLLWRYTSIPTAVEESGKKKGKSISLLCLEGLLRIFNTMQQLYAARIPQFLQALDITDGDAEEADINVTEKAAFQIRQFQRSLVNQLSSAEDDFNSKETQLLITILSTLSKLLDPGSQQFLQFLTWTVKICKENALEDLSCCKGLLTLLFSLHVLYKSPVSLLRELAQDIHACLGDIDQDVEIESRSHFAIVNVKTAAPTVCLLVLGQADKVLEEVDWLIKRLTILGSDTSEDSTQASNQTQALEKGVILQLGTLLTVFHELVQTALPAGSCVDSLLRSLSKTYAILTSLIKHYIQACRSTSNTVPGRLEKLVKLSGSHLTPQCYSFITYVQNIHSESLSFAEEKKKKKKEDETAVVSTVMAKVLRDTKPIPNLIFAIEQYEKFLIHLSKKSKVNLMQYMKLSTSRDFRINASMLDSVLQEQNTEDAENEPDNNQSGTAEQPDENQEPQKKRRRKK

FANCD2 (isolated) = FANCD2 (isolated) (Gallus gallus, UniProt Q68Y81 1-1439); assay: EMSA
SEC = target: the molecule itself; assay: SEC
[1] = target: B2; assay: pull-down
[2] = target: FANCD2 (in co-expressed D2-I);FANCI (in co-expressed D2-I) (Gallus gallus;Gallus gallus, UniProt Q68Y81;B0I564 1-1439;1-1338, |); assay: EMSA

B1: 39 bp dsDNA (dsDNA)
DNA 1: ATCGATGTCTCTAGACAGCTGCTCAGGATTGATCTGTAA
DNA 2: TTACAGATCAATCCTGAGCAGCTGTCTAGAGACATCGAT
- binding result (FANCI (isolated)): binds
- binding result (FANCD2 (isolated)): no binding

Binder: B2
- stoichiometry N (SEC): 2

- stoichiometry N [1]: ~1 FANCI:FANCD2
B3: His-tagged Gallus gallus FANCI (expressed alone) (natural protein, UniProt B0I564 1-1338, looked up)
chain: MAQRILQLAAEGSPERLQEALQGLTEGELGDMVTRQALRGRETAALLKGIFKGSPCSQQSGVLRRLQVYKHCVSLVESGDLHVGKVSEIIGLLMLEARQLPGHALAELATLFVEVIKRGSLSNGKSLELFSTVLTALSNSKESLAYGKGELNGEEFKKQLINTLCSSKWDPQCVIHLANMFRDIPLSGEELQFVVEKVLRMFSKLDLQEIPPLVYQLLLLSAKGSKKTVLEGIISFFNQLDKRQKEEQRVPQSADLEVATVPLDQLRHVEGTVILHIVSAINLDQDIGEELIKHLKTEQQKDPGKALCPFSVSLLLSTAVKHRLQEQIFDFLKTSITRSCKDLQILQASKFLQDLCPQQYDVTAVILEVVKNSAFGWDHVTQGLVDLGFSLMESYEPKKSFGGKAAETNLGLSKMPAQQACKLGASILLETFKVHEPIRSDILEQVLNRVLTKAASPVSHFIDLLSNIVVSAPLVLQNSSSRVTETFDNLSFLPIDTVQGLLRAVQPLLKVSMSVRDSLILVLQKAIFSRQLDARKAAVAGFLLLLRNFKILGSLTSSQCSQAIGATQVQADVHACYNSAANEAFCLEILGSLRRCLSQQADVRLMLYEGFYDVLRRNSQLASSIMETLLSQIKQYYLPQQDLLPPLKLEGCIMAQGDQIFLQEPLAHLLCCIQHCLAWYKSTVHLCKGAEDEEEEEDVGFEQNFEEMLESVTRRMIKSELEDFELDKSADFSPSSGVGVKNNIYAIQVMGICEVLIEYNFKIGNFSKNKFEDVLGLFTCYNKLSEILKEKAGKNKSTLGNRIARSFLSMGFVSTLLTALFRDNAQSHEESLAVLRSSTEFMRYAVSVALQKVQQLEEMGQTDGPDGQNPEKMFQNLCKITRVLLWRYTSIPTAVEESGKKKGKSISLLCLEGLLRIFNTMQQLYAARIPQFLQALDITDGDAEEADINVTEKAAFQIRQFQRSLVNQLSSAEDDFNSKETQLLITILSTLSKLLDPGSQQFLQFLTWTVKICKENALEDLSCCKGLLTLLFSLHVLYKSPVSLLRELAQDIHACLGDIDQDVEIESRSHFAIVNVKTAAPTVCLLVLGQADKVLEEVDWLIKRLTILGSDTSEDSTQASNQTQALEKGVILQLGTLLTVFHELVQTALPAGSCVDSLLRSLSKTYAILTSLIKHYIQACRSTSNTVPGRLEKLVKLSGSHLTPQCYSFITYVQNIHSESLSFAEEKKKKKKEDETAVVSTVMAKVLRDTKPIPNLIFAIEQYEKFLIHLSKKSKVNLMQYMKLSTSRDFRINASMLDSVLQEQNTEDAENEPDNNQSGTAEQPDENQEPQKKRRRKK

B4: 19 bp dsDNA (dsDNA)
DNA 1: ATCGATGTCTCTAGACAGC
DNA 2: GCTGTCTAGAGACATCGAT
- binding result [2]: binds

B5: 14 bp dsDNA (dsDNA)
DNA 1: ATCGATGTCTCTAG
DNA 2: CTAGAGACATCGAT
- binding result [2]: no binding
